According to FireProtDB (doi:10.1111/j.1432-1033.1994.tb18664.x):

Conditions: Escherichia coli (strain K12), Thermal, CD, NaCl 0.1 M, reversible: yes, whole UniProt chain shown

B1: Ribonuclease HI wild type, P0A7Y4 (protein)
chain: MLKQVEIFTDGSCLGNPGPGGYGAILRYRGREKTFSAGYTRTTNNRMELMAAIVALEALKEHCEVILSTDSQYVRQGITQWIHNWKKRGWKTADKKPVKNVDLWQRLDAALGQHQIKWEWVKGHAGHPENERCDELARAAAMNPTLEDTGYQVEV
pH 3, glycine-HCl 10 mM
  Tm: 50 °C
  unfolding enthalpy (van 't Hoff): 107 kcal/mol
pH 5.5, Sodium acetate 20 mM
  Tm: 53.1 °C
  unfolding enthalpy (van 't Hoff): 83.3 kcal/mol
